These results are taken from US20230192860A1 (published 2023).

Where a chain is given by its changes, count along the chain named.

B1: P1-068761_E32Y (antibody, V domains shown)
VH: EVQLVESGGGLVQPGKSLRLSCAASGFTLEDYAMHWVRQAPGKGLEWVSGINWNSEEIGYADSVKGRFTISRDNAKNSLYLQMNSLRTEDTALYYCAKVPGYSHGWIDAEDVWGQGTMVTVSS
VL: not shown
B2: P1-061029.IgG1.3 (antibody, V domains shown)
VH: B1 VH with E30D, E56A, E57N, H104G, E110F
VL: not shown
B3: P1-068761_E55A_E100fF (antibody, V domains shown)
VH: B1 VH with Y32E, E56A, E110F
VL: not shown
B4: P1-068761_E30D_E32Y (antibody, V domains shown)
VH: B1 VH with E30D
VL: not shown
B5: P1-068761_E32Y_E56N (antibody, V domains shown)
VH: B1 VH with E57N
VL: not shown
B6: P1-068761_E30D_E100fF (antibody, V domains shown)
VH: B1 VH with E30D, Y32E, E110F
VL: not shown
B7: P1-068767_E100fF_D102V (antibody, V domains shown)
VH: B1 VH with N52D, E57N, H104G, E110F
VL: not shown
B8: P1-068767_E30D_D102V (antibody, V domains shown)
VH: B1 VH with E30D, N52D, E57N, H104G
VL: not shown
B9: P1-068767_E55A_D102V (antibody, V domains shown)
VH: B1 VH with N52D, E56A, E57N, H104G
VL: not shown
B10: P1-068767_D102V (antibody, V domains shown)
VH: B1 VH with N52D, E57N, H104G
VL: not shown
B11: P1-068767_D52N_D102V (antibody, V domains shown)
VH: B1 VH with E57N, H104G
VL: not shown

In one experiment the target is T1, monovalent hVISTA-ECD (amino acids 32-193 of SEQ ID NO: 1 with a 7xHis tail) (UniProt Q9H7M9 33-193). In words: SPR; pH 7.4.
T1 sequence (Q9H7M9 other isoform, or with tags, fused parts or gaps): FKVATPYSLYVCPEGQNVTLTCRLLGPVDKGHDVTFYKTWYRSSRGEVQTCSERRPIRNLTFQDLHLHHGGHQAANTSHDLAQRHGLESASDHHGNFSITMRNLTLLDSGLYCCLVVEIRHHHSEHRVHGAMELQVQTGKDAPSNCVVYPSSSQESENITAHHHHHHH
B1: the Kd (commonly the constant that tells how readily two partners part at equilibrium) came to 18 nM.

In turn, B2 had a Kd of 32 nM.

Molecule B3 showed a Kd of 14 nM.

In the case of B4, the Kd was 21 nM.

For the molecule B5, the Kd was 42 nM.

B6 had a Kd of 48 nM.

Another experiment addresses T1, monovalent hVISTA-ECD (amino acids …). Nature of the experiment: SPR; pH 6.0. A general note: SPR reads the build-up and loss of mass on a sensor chip optically.
With B7, the Kd worked out at 2.7 nM.

As for B8, the Kd worked out at 2.1 nM.

Turning to B9, the affinity, expressed as Kd, was 1.9 nM.

For the molecule B10, the affinity, expressed as Kd, was 1.3 nM.

Consider B11, for which the Kd amounted to 0.88 nM. The Kd values of the last two molecules are within 1.5-fold of each other.

Another experiment shares this target. In words: SPR; pH 6.0. This is another data set of the same source.
B1: binding was put at a Kd of 0.21 nM.

For the molecule B3, binding was put at a Kd of 0.26 nM.

Regarding B4, the Kd turned out to be 0.24 nM. This Kd and that of the molecule before are within 1.5-fold of each other.

B5: binding was characterised by a dissociation constant (Kd) of 1.2 nM.

B6: the Kd came to 0.43 nM.

For a further experiment the target is unchanged. Nature of the experiment: SPR; pH 6.7.
Consider B7, for which the Kd came to 11 nM.

The molecule B2 displayed a Kd of 11 nM.

In the case of B8, binding was characterised by a dissociation constant (Kd) of 17 nM.

B9 showed a Kd of 15 nM.

Consider B10, for which the Kd was 14 nM.

B11 registered a Kd of 7.5 nM.

The target is the same in the next experiment. In words: SPR; pH 7.4. This is another data set of the same source.
With B7, the Kd worked out at 41 nM.

As to B2, the Kd stood at 32 nM. The Kd values of the last two molecules are within 1.5-fold of each other.

Turning to B8, binding was characterised by a dissociation constant (Kd) of 220 nM.

Take B9: the affinity, expressed as Kd, was 280 nM.

Turning to B10, the Kd came out at 170 nM.

B11 yielded a Kd of 87 nM.

For another experiment the target is unchanged. In words: SPR; pH 6.7. This is another data set of the same source.
B1: the Kd is 1.6 nM. In other words, the single-digit nanomolar range.

Regarding B2, binding was characterised by a dissociation constant (Kd) of 11 nM.

B3 gave a Kd of 1.5 nM.

Turning to B4, the Kd was 2 nM.

The molecule B5 came in with a Kd of 5.1 nM.

Molecule B6 registered a Kd of 3.7 nM.
